Measurements reported in patent US20240261333A1, “NOVEL TARGETS FOR ENHANCING ANTI-TUMOR IMMUNITY” (THE BROAD INSTITUTE, INC., priority 2021, published 2024).

Columns and labels:
ATAD3A (human) = ATAD3A (human) (UniProt Q9NVI7); test: IgG control IP from lysate of N-FLAG B3GNT2 cells, mass spectrometry
LARP4 (human) = LARP4 (human) (UniProt Q71RC2); test: as above
RCN1 (human) = RCN1 (human) (UniProt Q15293); test: as above
HSP90AB1 (human) = HSP90AB1 (human) (UniProt P08238); test: as above
KTN1 (human) = KTN1 (human) (UniProt Q86UP2); test: as above
PSMB6 (human) = PSMB6 (human) (UniProt P28072); test: as above
ZRANB2 (human) = ZRANB2 (human) (UniProt O95218); test: as above
IPO7 (human) = IPO7 (human) (UniProt O95373); test: as above
IPO7 (human), sequence (O95373 whole entry): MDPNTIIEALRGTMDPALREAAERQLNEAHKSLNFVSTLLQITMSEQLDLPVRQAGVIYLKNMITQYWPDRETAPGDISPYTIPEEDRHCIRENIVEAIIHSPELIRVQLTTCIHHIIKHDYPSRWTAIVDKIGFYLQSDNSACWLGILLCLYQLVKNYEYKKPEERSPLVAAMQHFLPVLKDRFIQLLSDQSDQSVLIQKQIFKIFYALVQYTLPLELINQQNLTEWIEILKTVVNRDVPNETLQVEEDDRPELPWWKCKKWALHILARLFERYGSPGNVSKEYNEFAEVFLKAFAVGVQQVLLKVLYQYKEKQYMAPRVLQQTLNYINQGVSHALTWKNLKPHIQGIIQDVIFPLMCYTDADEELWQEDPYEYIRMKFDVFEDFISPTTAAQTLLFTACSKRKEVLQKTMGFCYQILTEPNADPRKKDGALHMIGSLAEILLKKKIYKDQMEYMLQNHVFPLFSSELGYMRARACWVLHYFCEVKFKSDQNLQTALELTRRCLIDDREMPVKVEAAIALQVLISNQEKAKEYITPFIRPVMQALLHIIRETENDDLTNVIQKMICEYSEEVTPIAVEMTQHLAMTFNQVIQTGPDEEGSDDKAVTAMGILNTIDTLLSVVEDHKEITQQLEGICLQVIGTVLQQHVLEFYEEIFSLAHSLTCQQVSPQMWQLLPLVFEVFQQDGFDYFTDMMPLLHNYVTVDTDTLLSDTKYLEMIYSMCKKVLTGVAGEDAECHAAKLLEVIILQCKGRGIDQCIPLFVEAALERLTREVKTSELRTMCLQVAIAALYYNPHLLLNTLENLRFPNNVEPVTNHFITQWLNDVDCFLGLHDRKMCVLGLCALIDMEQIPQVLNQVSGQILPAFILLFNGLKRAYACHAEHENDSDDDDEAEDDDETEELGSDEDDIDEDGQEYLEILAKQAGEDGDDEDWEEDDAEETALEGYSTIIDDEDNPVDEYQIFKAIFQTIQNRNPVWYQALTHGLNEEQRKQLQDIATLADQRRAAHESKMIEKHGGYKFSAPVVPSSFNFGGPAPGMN

TUBA1C (human) = TUBA1C (human) (UniProt Q9BQE3); test: as above
HDGFL2 (human) = HDGFL2 (human) (UniProt Q7Z4V5); test: as above
HDGFL2 (human), sequence (Q7Z4V5 whole entry): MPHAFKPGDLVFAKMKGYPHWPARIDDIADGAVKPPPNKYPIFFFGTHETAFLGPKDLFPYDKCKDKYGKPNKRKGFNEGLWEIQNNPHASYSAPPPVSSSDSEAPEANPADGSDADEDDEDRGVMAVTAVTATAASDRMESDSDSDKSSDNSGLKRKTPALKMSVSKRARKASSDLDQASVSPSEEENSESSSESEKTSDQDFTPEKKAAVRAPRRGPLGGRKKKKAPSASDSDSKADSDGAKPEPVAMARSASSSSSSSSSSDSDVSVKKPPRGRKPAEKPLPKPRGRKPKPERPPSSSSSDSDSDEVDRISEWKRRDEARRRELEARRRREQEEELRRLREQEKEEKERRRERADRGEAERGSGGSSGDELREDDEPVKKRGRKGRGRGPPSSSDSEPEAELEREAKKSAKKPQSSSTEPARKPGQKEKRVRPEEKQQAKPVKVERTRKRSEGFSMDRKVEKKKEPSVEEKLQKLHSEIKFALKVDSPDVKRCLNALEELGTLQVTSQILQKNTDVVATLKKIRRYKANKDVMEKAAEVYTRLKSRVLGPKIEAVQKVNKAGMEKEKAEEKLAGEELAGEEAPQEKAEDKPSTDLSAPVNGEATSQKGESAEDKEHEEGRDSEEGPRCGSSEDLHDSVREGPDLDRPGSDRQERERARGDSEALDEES

SLC25A22 (human) = SLC25A22 (human) (UniProt Q9H936); test: as above
PXN (human) = PXN (human) (UniProt P49023); test: as above
UBTF (human) = UBTF (human) (UniProt P17480); test: as above
UBTF (human), sequence (P17480 other isoform, or with tags, fused parts or gaps limits assumed): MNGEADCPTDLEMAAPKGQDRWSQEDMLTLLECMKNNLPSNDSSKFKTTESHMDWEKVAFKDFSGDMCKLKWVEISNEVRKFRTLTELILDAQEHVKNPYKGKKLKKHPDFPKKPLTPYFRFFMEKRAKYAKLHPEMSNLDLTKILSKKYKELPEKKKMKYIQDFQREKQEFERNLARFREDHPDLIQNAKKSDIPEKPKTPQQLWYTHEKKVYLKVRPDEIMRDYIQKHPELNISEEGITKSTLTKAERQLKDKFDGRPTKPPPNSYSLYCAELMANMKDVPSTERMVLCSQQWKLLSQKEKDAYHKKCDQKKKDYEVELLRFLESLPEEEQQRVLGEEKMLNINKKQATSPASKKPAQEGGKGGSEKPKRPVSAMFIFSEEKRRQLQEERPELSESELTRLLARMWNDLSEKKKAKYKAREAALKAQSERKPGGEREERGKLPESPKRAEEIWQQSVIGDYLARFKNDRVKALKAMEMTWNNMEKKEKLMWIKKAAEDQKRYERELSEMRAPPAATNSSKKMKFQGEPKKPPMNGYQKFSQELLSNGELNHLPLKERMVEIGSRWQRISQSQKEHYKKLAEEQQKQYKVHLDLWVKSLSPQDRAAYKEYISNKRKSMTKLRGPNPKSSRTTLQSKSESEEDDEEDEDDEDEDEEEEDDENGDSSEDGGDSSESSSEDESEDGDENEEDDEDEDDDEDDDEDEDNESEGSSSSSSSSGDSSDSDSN

IFI16 (human) = IFI16 (human) (UniProt Q16666); test: as above
TECR (human) = TECR (human) (UniProt Q9NZ01); test: as above
TECR (human), sequence (Q9NZ01 whole entry): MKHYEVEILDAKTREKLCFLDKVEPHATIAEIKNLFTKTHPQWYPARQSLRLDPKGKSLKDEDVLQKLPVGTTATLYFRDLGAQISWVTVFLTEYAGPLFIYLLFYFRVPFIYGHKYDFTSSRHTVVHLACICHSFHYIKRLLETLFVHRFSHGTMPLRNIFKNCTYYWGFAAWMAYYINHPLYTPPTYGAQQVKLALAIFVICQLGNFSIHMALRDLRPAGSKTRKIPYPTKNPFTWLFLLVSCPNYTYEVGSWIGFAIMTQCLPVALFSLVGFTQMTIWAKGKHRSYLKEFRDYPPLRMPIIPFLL

PDIA4 (human) = PDIA4 (human) (UniProt P13667); test: as above
RRBP1 (human) = RRBP1 (human) (UniProt Q9P2E9); test: as above
PGAM5 (human) = PGAM5 (human) (UniProt Q96HS1); test: as above
DNAJB11 (human) = DNAJB11 (human) (UniProt Q9UBS4); test: co-IP with control IgG, mass spectrometry; lysate of cells with N-FLAG B3GNT2
MYO1C (human) = MYO1C (human) (UniProt O00159); test: as above
ARF4 (human) = ARF4 (human) (UniProt P18085); test: as above
ARF4 (human), sequence (P18085 2-180 limits assumed): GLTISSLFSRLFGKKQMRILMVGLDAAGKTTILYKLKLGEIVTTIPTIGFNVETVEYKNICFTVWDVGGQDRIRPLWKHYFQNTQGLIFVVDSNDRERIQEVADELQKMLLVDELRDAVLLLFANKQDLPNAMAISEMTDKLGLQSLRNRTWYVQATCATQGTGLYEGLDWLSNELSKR

SEL1L (human) = SEL1L (human) (UniProt Q9UBV2); test: as above
STAU2 (human) = STAU2 (human) (UniProt Q9NUL3); test: as above
STAU2 (human), sequence (Q9NUL3 whole entry): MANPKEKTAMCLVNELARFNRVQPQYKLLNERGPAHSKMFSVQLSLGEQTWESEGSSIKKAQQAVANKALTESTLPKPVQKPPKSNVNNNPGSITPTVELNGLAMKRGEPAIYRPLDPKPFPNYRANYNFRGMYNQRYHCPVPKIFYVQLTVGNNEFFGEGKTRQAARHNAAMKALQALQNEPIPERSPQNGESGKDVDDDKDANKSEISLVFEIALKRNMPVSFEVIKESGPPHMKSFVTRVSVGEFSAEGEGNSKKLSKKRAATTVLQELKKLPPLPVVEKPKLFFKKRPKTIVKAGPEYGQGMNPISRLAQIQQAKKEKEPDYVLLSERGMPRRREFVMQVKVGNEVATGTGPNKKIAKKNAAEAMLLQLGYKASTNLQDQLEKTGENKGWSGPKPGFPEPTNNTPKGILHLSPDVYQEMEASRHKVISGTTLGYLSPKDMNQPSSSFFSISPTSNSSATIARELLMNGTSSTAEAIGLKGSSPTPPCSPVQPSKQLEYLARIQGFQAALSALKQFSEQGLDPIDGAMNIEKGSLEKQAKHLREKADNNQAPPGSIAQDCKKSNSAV

SPRR1A (human) = SPRR1A (human) (UniProt P35321); test: as above
TOR1AIP2 (human) = TOR1AIP2 (human) (UniProt Q8NFQ8); test: as above
TOR1AIP2 (human), sequence (Q8NFQ8 2-470 limits assumed): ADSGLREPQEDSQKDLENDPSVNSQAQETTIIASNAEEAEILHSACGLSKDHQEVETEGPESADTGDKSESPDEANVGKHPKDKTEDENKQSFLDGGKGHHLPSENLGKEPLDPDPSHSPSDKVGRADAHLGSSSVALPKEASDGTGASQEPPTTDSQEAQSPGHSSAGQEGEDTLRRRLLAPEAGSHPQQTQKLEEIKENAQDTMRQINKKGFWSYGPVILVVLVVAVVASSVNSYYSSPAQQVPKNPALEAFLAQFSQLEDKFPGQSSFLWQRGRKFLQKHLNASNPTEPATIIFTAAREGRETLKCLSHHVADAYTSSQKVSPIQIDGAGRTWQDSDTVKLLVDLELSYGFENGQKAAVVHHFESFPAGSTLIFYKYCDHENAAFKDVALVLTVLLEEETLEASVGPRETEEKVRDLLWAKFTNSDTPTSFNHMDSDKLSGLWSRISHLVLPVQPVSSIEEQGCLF

CD70 (human) = CD70 (human) (UniProt P32970); test: as above
SLC25A5 (human) = SLC25A5 (human) (UniProt P05141); test: as above
CTHRC1 (human) = CTHRC1 (human) (UniProt Q96CG8); test: as above
PJA2 (human) = PJA2 (human) (UniProt O43164); test: as above
ZC3HAV1 (human) = ZC3HAV1 (human) (UniProt Q7Z2W4); test: as above
GANAB (human) = GANAB (human) (UniProt Q14697); test: as above
RPL9 (human) = RPL9 (human) (UniProt P32969); test: as above
UGGT1 (human) = UGGT1 (human) (UniProt Q9NYU2); test: as above
RPS27 (human) = RPS27 (human) (UniProt P42677); test: as above
NPM1 (human) = NPM1 (human) (UniProt P06748); test: as above
ILF3 (human) = ILF3 (human) (UniProt Q12906); test: as above
CCT7 (human) = CCT7 (human) (UniProt Q99832); test: as above
ARHGEF2 (human) = ARHGEF2 (human) (UniProt Q92974); test: as above

HSP90AB1 (human), sequence (P08238 2-724 limits assumed): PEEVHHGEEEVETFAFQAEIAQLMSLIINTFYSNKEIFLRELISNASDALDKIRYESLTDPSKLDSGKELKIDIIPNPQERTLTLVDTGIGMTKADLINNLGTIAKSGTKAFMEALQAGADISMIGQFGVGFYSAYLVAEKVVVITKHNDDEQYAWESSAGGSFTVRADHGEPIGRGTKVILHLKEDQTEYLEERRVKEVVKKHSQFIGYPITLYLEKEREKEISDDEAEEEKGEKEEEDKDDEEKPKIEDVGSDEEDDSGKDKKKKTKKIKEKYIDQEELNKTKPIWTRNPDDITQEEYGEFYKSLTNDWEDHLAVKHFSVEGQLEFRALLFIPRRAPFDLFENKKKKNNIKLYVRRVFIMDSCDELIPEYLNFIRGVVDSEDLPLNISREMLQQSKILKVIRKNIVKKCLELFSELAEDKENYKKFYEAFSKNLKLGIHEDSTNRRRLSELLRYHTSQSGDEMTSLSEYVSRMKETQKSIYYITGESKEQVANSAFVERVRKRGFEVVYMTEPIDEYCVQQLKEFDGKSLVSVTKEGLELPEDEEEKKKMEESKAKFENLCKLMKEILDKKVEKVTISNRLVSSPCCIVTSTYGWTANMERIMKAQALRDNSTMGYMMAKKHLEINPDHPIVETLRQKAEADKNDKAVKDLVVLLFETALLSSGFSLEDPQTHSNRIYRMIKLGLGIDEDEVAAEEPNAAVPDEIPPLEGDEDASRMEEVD
RCN1 (human), sequence (Q15293 30-331 limits assumed): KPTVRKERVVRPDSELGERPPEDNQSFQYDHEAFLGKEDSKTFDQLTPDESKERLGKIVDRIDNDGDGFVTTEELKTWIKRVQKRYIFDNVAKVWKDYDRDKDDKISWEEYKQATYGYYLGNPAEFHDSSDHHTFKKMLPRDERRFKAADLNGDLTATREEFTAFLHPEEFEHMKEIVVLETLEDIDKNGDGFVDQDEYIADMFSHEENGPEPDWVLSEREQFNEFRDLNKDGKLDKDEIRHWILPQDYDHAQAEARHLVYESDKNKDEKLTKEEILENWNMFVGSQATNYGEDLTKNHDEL

IgG control (Millipore Sigma 12-371) (antibody)
co-IP mass spectrometry count (ATAD3A (human)): 0 | co-IP mass spectrometry count (LARP4 (human)): 0 | co-IP mass spectrometry count (RCN1 (human)): 0 | co-IP mass spectrometry count (HSP90AB1 (human)): 0 | co-IP mass spectrometry count (KTN1 (human)): 0 | co-IP mass spectrometry count (PSMB6 (human)): 0 | co-IP mass spectrometry count (ZRANB2 (human)): 0 | co-IP mass spectrometry count (IPO7 (human)): 0 | co-IP mass spectrometry count (TUBA1C (human)): 8 | co-IP mass spectrometry count (HDGFL2 (human)): 0 | co-IP mass spectrometry count (SLC25A22 (human)): 0 | co-IP mass spectrometry count (PXN (human)): 0 | co-IP mass spectrometry count (UBTF (human)): 0 | co-IP mass spectrometry count (IFI16 (human)): 0 | co-IP mass spectrometry count (TECR (human)): 0 | co-IP mass spectrometry count (PDIA4 (human)): 0 | co-IP mass spectrometry count (RRBP1 (human)): 0 | co-IP mass spectrometry count (PGAM5 (human)): 0 | co-IP mass spectrometry count (DNAJB11 (human)): 0 | co-IP mass spectrometry count (MYO1C (human)): 0 | co-IP mass spectrometry count (ARF4 (human)): 0 | co-IP mass spectrometry count (SEL1L (human)): 0 | co-IP mass spectrometry count (STAU2 (human)): 0 | co-IP mass spectrometry count (SPRR1A (human)): 0 | co-IP mass spectrometry count (TOR1AIP2 (human)): 0 | co-IP mass spectrometry count (CD70 (human)): 0 | co-IP mass spectrometry count (SLC25A5 (human)): 6 | co-IP mass spectrometry count (CTHRC1 (human)): 0 | co-IP mass spectrometry count (PJA2 (human)): 0 | co-IP mass spectrometry count (ZC3HAV1 (human)): 0 | co-IP mass spectrometry count (GANAB (human)): 0 | co-IP mass spectrometry count (RPL9 (human)): 0 | co-IP mass spectrometry count (UGGT1 (human)): 0 | co-IP mass spectrometry count (RPS27 (human)): 0 | co-IP mass spectrometry count (NPM1 (human)): 0 | co-IP mass spectrometry count (ILF3 (human)): 0 | co-IP mass spectrometry count (CCT7 (human)): 0 | co-IP mass spectrometry count (ARHGEF2 (human)): 0
